# Tests used:
# hPD1-mFc (human) = assay: kinetic binding table: huPDL1-hFc captured as ligand (capture level 53.4 RU), hPD1-mFc as sample; method not given
# [1] = molecular target: PD-1 (antigen of the ELISA and of the in vitro affinity measurement) (UniProt Q15116); assay: ELISA; parameters: Bmax: unit not given here
# PD-1 (antigen of the ELISA and of the in vitro affinity measurement), sequence (Q15116 25-167 limits assumed): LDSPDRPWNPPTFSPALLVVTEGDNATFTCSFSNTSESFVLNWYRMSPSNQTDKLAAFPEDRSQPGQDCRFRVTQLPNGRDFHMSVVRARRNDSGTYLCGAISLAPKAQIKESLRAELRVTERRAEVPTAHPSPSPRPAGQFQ
# hPD1-mFc (human), sequence (Q15116 25-170): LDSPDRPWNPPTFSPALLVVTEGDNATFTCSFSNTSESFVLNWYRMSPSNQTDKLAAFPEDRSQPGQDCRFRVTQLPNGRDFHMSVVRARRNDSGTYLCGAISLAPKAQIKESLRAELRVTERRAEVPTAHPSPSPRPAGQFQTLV
Kd (hPD1-mFc (human)) [µM],koff (hPD1-mFc (human)) [s⁻¹],kon (hPD1-mFc (human)) [M⁻¹ s⁻¹],Bmax [1],Kd [1] [µM],Substance
0.0741,0.025,338000,,,huPDL1-hFc (from UniProt Q9NZQ7) (Fc fusion)
,,,1.37,0.00032,XR034 (Pembro IgG) (antibody)

# Source: patent US20230365641A1
